Numbering of substitutions follows the chain as printed.
T1: crab-eating macaque CDCP1 with N-terminal c-Myc tag (expression vector GS02), on crab-eating macaque … (crab-eating macaque (Macaca …, UniProt Q9H5V8 30-836 (human entry)))
T1 chain: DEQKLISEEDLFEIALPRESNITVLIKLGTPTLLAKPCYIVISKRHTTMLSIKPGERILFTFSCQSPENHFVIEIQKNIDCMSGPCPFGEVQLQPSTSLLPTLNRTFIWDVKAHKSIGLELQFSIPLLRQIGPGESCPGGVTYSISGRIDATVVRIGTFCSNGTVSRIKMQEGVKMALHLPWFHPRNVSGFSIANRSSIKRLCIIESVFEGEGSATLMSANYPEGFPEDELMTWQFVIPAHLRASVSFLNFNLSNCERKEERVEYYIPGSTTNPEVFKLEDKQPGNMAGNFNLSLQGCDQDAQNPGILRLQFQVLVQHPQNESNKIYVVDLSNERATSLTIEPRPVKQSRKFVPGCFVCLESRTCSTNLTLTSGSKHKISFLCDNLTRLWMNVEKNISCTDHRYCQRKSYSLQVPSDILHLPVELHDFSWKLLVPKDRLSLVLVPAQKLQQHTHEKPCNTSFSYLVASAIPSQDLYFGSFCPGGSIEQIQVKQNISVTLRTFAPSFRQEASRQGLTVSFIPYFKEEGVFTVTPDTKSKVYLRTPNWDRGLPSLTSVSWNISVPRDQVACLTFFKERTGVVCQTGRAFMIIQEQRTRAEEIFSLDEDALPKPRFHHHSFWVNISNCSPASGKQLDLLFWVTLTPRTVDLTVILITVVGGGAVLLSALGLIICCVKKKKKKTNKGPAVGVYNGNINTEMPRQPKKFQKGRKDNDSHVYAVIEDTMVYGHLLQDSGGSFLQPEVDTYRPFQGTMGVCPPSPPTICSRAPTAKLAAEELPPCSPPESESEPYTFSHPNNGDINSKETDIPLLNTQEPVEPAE

T2: full-length hCDCP1 with N-terminal c-Myc tag (expression vector GS01), on Ba/F3-hCDCP1 cells or … (human, UniProt Q9H5V8 30-836)
T2 construct: also called human CDCP1; hCDCP1 forced expression cells
T2 sequence: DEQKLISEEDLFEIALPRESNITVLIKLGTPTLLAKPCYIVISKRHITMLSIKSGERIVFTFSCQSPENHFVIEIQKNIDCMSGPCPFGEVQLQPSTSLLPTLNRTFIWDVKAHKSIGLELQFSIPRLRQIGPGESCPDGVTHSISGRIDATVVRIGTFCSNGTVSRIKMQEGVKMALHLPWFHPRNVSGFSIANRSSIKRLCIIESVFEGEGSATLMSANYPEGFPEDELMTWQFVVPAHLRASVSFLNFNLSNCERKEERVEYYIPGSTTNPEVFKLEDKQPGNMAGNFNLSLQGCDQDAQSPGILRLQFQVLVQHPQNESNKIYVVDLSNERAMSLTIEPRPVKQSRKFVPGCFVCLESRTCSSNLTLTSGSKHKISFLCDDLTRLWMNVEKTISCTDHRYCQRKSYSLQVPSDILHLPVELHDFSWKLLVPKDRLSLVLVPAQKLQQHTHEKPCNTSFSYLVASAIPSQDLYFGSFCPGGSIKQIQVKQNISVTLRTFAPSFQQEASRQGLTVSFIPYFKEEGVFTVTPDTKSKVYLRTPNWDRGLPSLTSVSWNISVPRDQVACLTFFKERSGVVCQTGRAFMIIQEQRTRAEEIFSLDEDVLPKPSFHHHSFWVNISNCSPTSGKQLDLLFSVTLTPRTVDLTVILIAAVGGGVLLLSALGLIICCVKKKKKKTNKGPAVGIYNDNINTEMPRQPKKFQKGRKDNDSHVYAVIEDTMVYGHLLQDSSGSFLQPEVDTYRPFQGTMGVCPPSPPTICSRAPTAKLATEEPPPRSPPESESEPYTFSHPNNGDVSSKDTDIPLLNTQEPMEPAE

T3: hCDCP1 expressed by PC3 cells and other human cancer cell lines (endogenous) (human, UniProt Q9H5V8 30-836)
T3 construct: Endogenous protein on cell lines; PC3 is said to express also the cleaved form; also called human CDCP1
T3 sequence: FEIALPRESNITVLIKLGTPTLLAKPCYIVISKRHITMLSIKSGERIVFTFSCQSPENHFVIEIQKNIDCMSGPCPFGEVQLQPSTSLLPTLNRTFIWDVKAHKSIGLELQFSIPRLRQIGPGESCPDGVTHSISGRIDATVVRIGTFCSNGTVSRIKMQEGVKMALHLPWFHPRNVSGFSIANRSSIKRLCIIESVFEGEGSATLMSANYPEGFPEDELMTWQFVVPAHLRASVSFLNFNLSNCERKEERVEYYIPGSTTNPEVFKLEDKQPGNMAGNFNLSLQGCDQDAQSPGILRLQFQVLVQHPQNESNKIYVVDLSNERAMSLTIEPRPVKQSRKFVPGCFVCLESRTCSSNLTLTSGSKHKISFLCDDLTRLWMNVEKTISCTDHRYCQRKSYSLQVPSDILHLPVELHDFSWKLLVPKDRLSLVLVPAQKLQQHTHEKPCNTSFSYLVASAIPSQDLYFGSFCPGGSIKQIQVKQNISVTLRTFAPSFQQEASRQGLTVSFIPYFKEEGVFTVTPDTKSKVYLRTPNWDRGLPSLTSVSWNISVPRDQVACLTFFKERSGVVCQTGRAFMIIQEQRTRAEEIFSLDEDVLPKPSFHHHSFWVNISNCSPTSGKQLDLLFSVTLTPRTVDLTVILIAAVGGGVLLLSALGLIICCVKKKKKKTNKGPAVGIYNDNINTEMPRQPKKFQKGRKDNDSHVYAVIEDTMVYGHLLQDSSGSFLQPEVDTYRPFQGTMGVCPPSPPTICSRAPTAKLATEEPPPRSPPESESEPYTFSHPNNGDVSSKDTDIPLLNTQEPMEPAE

B1: mh12A041HCori/LCori (antibody, human IgG1, kappa, V domains shown)
VH: EVQLQESGPGILQPSQTLSLTCSFSGFSLSTSGMGVSWIRQPSGKGLEWLAHIYWDDDKRYNPSLKSRLTISKDTSSNQVFLKITSVDTADTATYYCARSGSYYGSSLDCWGQGTTLTVSS
VL: DVLMTQTPLSLPVSLGDQASISCRSSQSIVHSNGNTYLEWYLQKPGQSPKLLIYKVSNRFSGVPDRFSGSGSGTDFTLKISRVEAEDLGVYYCFQGSHVPWTFGGGTKLEIKR
notes: mouse-human chimeric antibody, human IgG1/kappa constant regions; also called mh12A041HCori/LCori-biotin (biotinylated form)
B2: mh14A025HCori/LCori (antibody, human IgG1, kappa, V domains shown)
VH: EVQLQESGAELVRPGALVKLSCKASGFNIKDYYMHWVKQRPEQGLEWIGWIDPENGNTIYDPKFQGKASITADTSSNTAYLQLSSLTSEDTAVYYCGGLLYAMDYWGQGTSVTVSS
VL: DIQMTQTTSSLSASLGDRVTISCRASQDISNYLNWYQQKPDGTVKLLIYFTSRLHSGVPSRFSGSGSGTDYSLTISNLEQEDIATYFCQQGNTLPRTFGGGTKLEIRR
notes: mouse-human chimeric antibody, human IgG1/kappa constant regions; also called mh14A025HCori/LCori-biotin (biotinylated form)
B3: mh14A043HCori/LCori (antibody, human IgG1, kappa, V domains shown)
VH: B2 VH with H35N, G97Y, L99S, L100S, A102R, M103F, D104T, S111L
VL: QIVLIQSPALMSASPGEKVTMTCSASSSVSYMYWYQQKPRSSPKPWIYLTSNLASGVPARFSGSGSGTSYSLTISSMEAEDAATYYCQQWSSNPFTFGSGTKLEIKR
notes: mouse-human chimeric antibody, human IgG1/kappa constant regions; also called mh14A043HCori/LCori-biotin (biotinylated form)
B4: mh14A063HCori/LCori (antibody, human IgG1, kappa, V domains shown)
VH: EVQLQESGGGLVQPGGSLKLSCAASGFTFSSYTMSWVRQTPEKRLEWVAYISNGGGSTYYPDTVKGRFTISRDNAKNTLYLQMSSLKSEDTAMYYCARYDLGFAYWGQGTLVTVSS
VL: NIVLTQSPASLAVSLGQRATISCRASESVDSYGNSFMHWYQQKPGQPPKLLIFLASNLESGVPARFSGSGSRTDFTLTIDPVEADDAATYYCQQNNEDPWTFGGGTNLEIKR
notes: mouse-human chimeric antibody, human IgG1/kappa constant regions; also called mh14A063HCori/LCori-biotin (biotinylated form)
B5: 25A11 antibody (antibody, human IgG1, kappa, V domains shown)
VH: QVQLQQPGAELVKPGASVKMSCKASGYTFTSYYMYWVKQRPGQGLEWIGEINPSHGGTNFNEKFKNKATLTVDKSSSTVYMQLSSLTSEDSAVYYCTRGGNYPYFAMDYWGQGTSVTVSS
VL: B2 VL with F50Y, R96W, R107K
notes: also called 25A11 biotin; 25A11-biotin (biotinylated form)
B6: CUB4 antibody (antibody, human IgG1, kappa, V domains shown)
VH: EVQLVESGGGLVQPGGSLRLSCAASGFTFNSYGMSWVRQAPGKGLEWVATISSGGSYKYYVDSVKGRFTISRDNAKNSLYLQMNSLRAEDTAVYYCARHPDYDGVWFAYWGQGTLVTVSS
VL: EIVLTQSPATLSLSPGERATMSCSVSSSVFYLHWYQQKPGQAPRLWIYDTSKLASGIPARFSGSGSGTDFTLTISSLEPEDFAVYYCQQWNSNPPTFGGGTKVEIKR
notes: also called CUB4-biotin (biotinylated form)
B7: mh14A055 (antibody, human IgG1, kappa, V domains shown)
VH: EVQLQESGPGLVAPSQSLSITCTVSGFSLTGYGVNWVRQPPGKGLEWLGMIWGDGSTDYNSALKSRLSISKDNSKSQVFLKMNSLQTDDTARYYCARDGYDGAMDYWGQGTSVTVSS
VL: not shown
notes: mouse-human chimeric antibody of 14A055, human IgG1/kappa constant regions
B8: mh14A091 (antibody, human IgG1, kappa, V domains shown)
VH: EVQLQESGAELARPGASVKLSCKASGYTFTSYWMQWVKQRPGQGLEWIGAIYPGDGDTRYTQKFKGKATLTADKSSSTAYMQLSSLASEDSAVYYCAGYDAPWFAYWGQGTLVTVSS
VL: B4 VL with F53Y, N107K
notes: mouse-human chimeric antibody of 14A091, human IgG1/kappa constant regions
B9: h14A063VH4/VL1 (antibody, human IgG1, kappa, V domains shown)
VH: B4 VH with Q5V, K19R, T40A, N53S, T78S, S84N, K87R, S88A, M93V
VL: EIVLTQSPATLSLSPGERATLSCRASESVDSYGNSFMHWYQQKPGQAPRLLIFLASNLESGVPARFSGSGSRTDFTLTISSLEPEDFAVYYCQQNNEDPWTFGGGTKVEIKR
notes: humanized antibody, human IgG1/kappa constant regions; also called h14A063VH4/VL1-biotin (biotinylated form)
B10: h14A063VH4/VL2 (antibody, human IgG1, kappa, V domains shown)
VH: B4 VH with Q5V, K19R, T40A, N53S, T78S, S84N, K87R, S88A, M93V
VL: B9 VL with R72G
notes: humanized antibody, human IgG1/kappa constant regions; also called h14A063VH4/VL2-biotin (biotinylated form)

What was measured:
[1] = biological target: T1, crab-eating macaque CDCP1 with …; assay: flow cytometry on crab-eating macaque CDCP1-expressing CHO-K1 cells
From the text: The hCDCP1-expressing CHO-K1 cells and the crab-eating macaque CDCP1-expressing CHO-K1 cells were exfoliated and dispersed using 0.25% trypsin/EDTA (Nacalai Tesque, Inc.), and were then reacted with various concentrations of individual mouse-human chimeric antibodies, namely, mh12A041HCori/LCori, mh14A025HCori/LCori, mh14A043HCori/LCori, mh14A055, mh14A063HCori/LCori, and mh14A091. Thereafter, the binding property of the antibodies was observed by flow cytometry (FIG. 9). As a result, these 6 antibodies all reacted with the crab-eating macaque CDCP1, and in particular, the 5 antibodies other than mh14A055 reacted with both the human CDCP1 and the crab-eating macaque CDCP1 at the same levels.

[2] = biological target: T2, full-length hCDCP1 with N-terminal …; assay: flow cytometry on Ba/F3-hCDCP1 cells
[3] = biological target: T3, hCDCP1 expressed by PC3 cells and other …; assay: cancer cells that express hCDCP1; method not given
[4] = biological target: T2, full-length hCDCP1 with N-terminal …; assay: flow cytometry on untreated Ba/F3-hCDCP1 cells (comparison of FIG. 8)
Method: In order to investigate whether the obtained anti-hCDCP1 mouse-human chimeric antibodies bind to the N-terminal side of the serine protease cleavage site of the hCDCP1 molecules or bind to the transmembrane region side, […] the technique mentioned in the previous section. The following anti-hCDCP1 mouse-human chimeric antibody clones were evaluated: [0259] mh12A041HCori/LCori, mh14A025HCori/LCori, mh14A043HCori/LCori, mh14A055, mh14A063HCori/LCori, and mh14A091.
[…] It was confirmed by the same Western blotting as that mentioned in the previous section that the full-length hCDCP1 disappeared and only the cleaved hCDCP1 was present in the above-treated Ba/F3-CDCP1 cells. With respect to these cells, a dilution series of anti-hCDCP1 mouse-human chimeric antibodies from 5 μg/mL to 5 ng/mL was prepared, and was then reacted at 4° C. for 30 minutes. As a negative control, a similar dilution series of anti-RS virus antibodies described in the later section was prepared as a non-specific human IgG, and was then reacted at 4° C. for 30 minutes.

Binder	binding result [1]	binding result [2]	binding result [3]	binding result [4]
B1	binds	binds	–	–
B2	binds	binds	–	–
B3	binds	binds	–	–
B4	binds	binds	–	–
B5	–	–	binds	–
B6	–	–	binds	–
B7	binds	–	–	binds
B8	binds	–	–	binds
B9	–	binds	–	–
B10	–	binds	–	–

— patent publication US20230050380A1 (CHIOME BIOSCIENCE, published 2023)
